Results from patent US20070081991A1, “Compositions and methods for modulation of immune responses” (Pepgen Corporation, priority 2001, published 2007).
Entries after “also recorded” stand apart in the source; their conditions may differ. Marks after values point to notes of the source that are not given here.

Assays:
[1] = mice; cited from earlier work
[2] = target: T1, Qa-1^b (Mus musculus, UniProt P06339); conditions: cited from earlier work
T1 sequence (P06339 21-357): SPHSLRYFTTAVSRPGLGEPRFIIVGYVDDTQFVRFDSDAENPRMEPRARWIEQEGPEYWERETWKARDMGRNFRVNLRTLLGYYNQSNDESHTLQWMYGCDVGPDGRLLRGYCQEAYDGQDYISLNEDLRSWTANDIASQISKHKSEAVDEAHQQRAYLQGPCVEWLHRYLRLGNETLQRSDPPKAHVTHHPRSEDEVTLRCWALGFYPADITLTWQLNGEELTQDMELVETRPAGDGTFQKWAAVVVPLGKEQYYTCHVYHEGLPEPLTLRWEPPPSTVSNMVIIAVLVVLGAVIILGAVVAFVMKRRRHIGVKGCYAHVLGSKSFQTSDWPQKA
T1 sequence (P01887 21-119 partner): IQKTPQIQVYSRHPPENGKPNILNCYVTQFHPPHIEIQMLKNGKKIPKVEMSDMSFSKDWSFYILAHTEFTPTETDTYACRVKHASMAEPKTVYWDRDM

[3] = test system: HLA-E; assay: HLA-E stabilization assay (cell surface expression by flow cytometry); type: cell-based, human; conditions: overnight incubation with peptide at 26° C.
Experimental: Synthetic peptides, purchased from Research Genetics, were dissolved in PBS. The peptides used were B7sp ([…]) (SEC ID NO: 3), hsp60sp ([…]) (SEC ID NO: 2), B7 R5V ([…]) (SEC ID NO: 14), hsp60 V5R ([…]) ([…]), and P18I10 ([…]) (SEC ID NO: 113) (all from Research Genetics, Huntsville, Ala.). Cells and their HLA-E transfected derivatives were incubated with synthetic peptides (3-300 μM) at 26° C. for 15-20 hours in serum-free AIM-V medium (GibcoBRL, Paisley Scotland) at a concentration of 1-3.10^6 cells/ml. Cells were then harvested, washed in PBS, stained with mAbs and analyzed by flow cytometry. Cells were subjected to stress by allowing them to grow at increasing cell density.
To test whether the hsp60-derived peptides were able to bind HLA-E, stabilized HLA-E cell surface expression was stabilized with the different synthetic peptides, by overnight incubation at 26° C. For this purpose MHC class I-deficient cell lines such as 721.221 (which lack HLA-A, -B, -C, and -G, but express HLA-E and -F intracellularly), as well as K562 cells transfected with HLA-E*01033 (K562-E*01033) or HLA-E*0101 were employed. The 721.221 cells and HLA-E transfected, but not untransfected, K562 cells express low levels of HLA-E at the cell surface during normal cell growth.

[4] = target: T2, HLA-E (Homo sapiens, UniProt P13747); assay: Peptide competition with B7sp in cytotoxic assay on K562-E*01033 cells; type: cell-based; conditions: 0.1 μM B7sp together with increasing concentrations of competing peptide; effector Nishi
T2 construct: HLA-E*0101 and HLA-E*01033 cDNA encoding plasmids (pcDNA3) were provided by Drs; M. Ullbrecht and E. Weiss; expressed in transfected cells; host or cells: K562
Experimental: (§1) K562-E*01033 cells were incubated with the different peptides at 26° C. for 15-20 hours, and then tested in 2 h 51Cr release assays. In order to ensure that the levels of HLA-E with a protective peptide, and not the HLA-E levels as such, provided the protective capacity we kept the non-protective peptides, but omitted the B7sp, during the assays. (a) Killing of K562-E*01033 cells by NKL (left) or Nishi (right) after incubation with […], 300 mM hsp60sp, or 30 mM B7sp. 50 mM of P18I10 control peptide and hsp60sp was also included during the assays. Data from an E:T ratio of 30:1 is shown. The figure represents the mean of at least three experiments. Error bars indicate standard error of the mean. (b) Killing of K562-E*01033 cells by NKL (left panel) or Nishi (right panel) incubated over night with 30 mM 7sp, 300 mM P18I10 (pCtrl), 300 mM B7 R5V, 300 mM hsp60sp, or 300 mM hsp60 V5R. 50 mM of all peptides, except B7sp, were included during the assay. Peptide concentrations were chosen according to FIG. 5c. The figure represents the mean of at least three experiments. Error bars indicate standard error of the mean. (c) HLA-E cell surface expression by K562-E*01033 after the assay. A cold target preparation was prepared in parallel as in (a) and (b), and then stained with DX17 mAb (anti-HLA class I), followed by RPE-conjugated goat-anti-mouse IgG. One representative example out of more than 5 is shown. Note that, as in (a) and (b), 50 mM of all peptides, except for B7sp, was present during the time of the assay, explaining the lower HLA-E expression with B7sp compared to Hsp60sp, Hsp60 V5R and B7 R5V. (d) Killing of K562-E*01033 cells by Nishi after incubation for 30 min at room temperature with 0.1 mM B7sp and increasing amounts of competing peptides (hsp60sp, hsp60.4, B7 R5V and P18I10). All the peptides were kept throughout the assay
Briefly, K562-E*01033 cells were incubated with 0.1 μM B7sp together with increasing concentrations of competing peptides and tested in cytotoxic assays.

[5] = test system: CD94/NKG2A+ NK cells; conditions: peptide presented by Qa-1^b; cited from earlier work
[6] = test system: CD94/NKG2A+ NK cell lines Nishi and NKL; assay: NK cell-mediated cytotoxicity, 2 h 51Cr release, peptide-loaded K562-E*01033 targets; type: cell-based, human; conditions: targets incubated overnight at 26° C. with peptide; effectors NKL and Nishi
Experimental: as §1
NK cell-mediated cytotoxicity was measured using a 2 hours standard ^51Cr radioisotope release assay. Briefly, target cells were incubated for 15-20 hours at 26° C. with the various peptides at concentrations ranging from 1-300 μM, and then labeled with ^51Cr. Peptides were washed away prior to setting up the assays, except in some experiments where the non-protective hsp60sp, B7 R5V and hsp60 V5R was kept throughout the assay to assure higher levels of HLA-E expression, as compared to targets incubated with the protective B7sp. In mAb blocking experiments, cells were preincubated with mouse serum, or an irrelevant isotype matched antibody to block Fc-receptors. Blocking of either target or effector cells with mAbs was performed at 4° C., and the antibodies were also included during the assays. […]

[7] = test system: HLA-E; assay: HLA-E stabilization assay (cell surface expression by flow cytometry); type: cell-based, human; conditions: at 37° C.
[8] = target: T3, HLA-E*01033 on transfected K562 cells (K562-E*01033) (human); assay: HLA-E surface stabilisation on transfected K562 cells, synthetic peptide overnight at 26 C, flow cytometry
T3 construct: whole, on cells; MHC class I molecule that takes up added peptide in the 26 C stabilisation assay
Experimental: (§2) Synthetic peptides, purchased from Research Genetics, were dissolved in PBS. […] Cells and their HLA-E transfected derivatives were incubated with synthetic peptides (3-300 μM) at 26° C. for 15-20 hours in serum-free AIM-V medium (GibcoBRL, Paisley Scotland) at a concentration of 1-3.10⁶ cells/ml. Cells were then harvested, washed in PBS, stained with mAbs and analyzed by flow cytometry. Cells were subjected to stress by allowing them to grow at increasing cell density.

[9] = target: T3, HLA-E*01033 on transfected K562 cells …; assay: HLA-E surface stabilisation on K562-E*01033 cells, DX17 staining, flow cytometry
Experimental: as §2

[10] = target: T4, HLA-E on cells, allele not told (human, UniProt P13747 22-358; P61769 21-119); assay: HLA-E surface stabilisation with synthetic peptide overnight at 26 C, flow cytometry
T4 construct: whole, on cells
Experimental: as §2

[11] = target: T4, HLA-E on cells, allele not told; assay: summary of the examples
[12] = target: T3, HLA-E*01033 on transfected K562 cells …; assay: HLA-E surface expression on K562-E*01033 cells after the cytotoxic assay, DX17 staining, flow cytometry
[13] = target: T4, HLA-E on cells, allele not told; assay: HLA-E surface stabilisation on transfected K562 and 721.221 cells, flow cytometry
Experimental: as §2

[14] = K562 cells transfected with HLA-E*01033 or HLA-E*0101

CN(C(=O)c1c(O)c2ccccc2n(C)c1=O)c1ccccc1 [linomide]
protection from developing EAE [1]: can protect mice from developing disease

AMAPRTLLL [qdm, reference compound]
binding to Qa-1^b [2]: known to form relatively stable Qa-1b/peptide complex

GMKFDRGYI [hsp60.4, human hsp60 residues 216-224]
HLA-E cell surface expression (stabilization) ([3]; 721.221 cells): capable of stabilizing HLA-E molecules | HLA-E cell surface expression (stabilization) [3, 14]: capable of stabilizing HLA-E molecules; also recorded: can bind to HLA-E | competition with B7sp (loss of HLA-E mediated protection from killing) [4]: not able to compete with B7sp; also recorded: could not compete with the B7sp for binding to HLA-E | binding to Qa-1^b [2]: bind to mouse Qa-1^b molecules; also recorded: could bind to Qa-1^b; also recorded: binds to Qa-1^b | competition with Qdm-peptide for binding to Qa-1^b ([2]; even when mixed in 100,000-fold excess with 1 mM Qdm): failed to compete with the protective Qdm-peptide for binding to Qa-1^b; also recorded: nor could it reportedly compete for binding to Qa-1^b | protection from CD94/NKG2A+ NK cells [5]: did not induce protection from CD94/NKG2A^+ NK cells; also recorded: fail to protect the cells from NK cell mediated lysis

L MLQGVDLL (N-terminal Leu) [hsp60.2, human hsp60 residues 39-47]
HLA-E cell surface expression (stabilization) [3, 14]: HLA-E stabilization was not observed

QMRPRSRVL [hsp60 V5R, hsp60sp with valine to arginine at position 5]
protection of K562-E*01033 cells from killing by NK cells [6]: not sufficient to restore protection from killing

QMRPVSRVL [hsp60sp]
HLA-E cell surface expression (stabilization) [3, 14]: substantial increase in HLA-E expression; also recorded: stabilization of HLA-E | protection of K562-E*01033 cells from killing by NK cells [6]: did not result in any significant protection; also recorded: fails to protect K562-E*01033 cells from killing by NK cells | competition with B7sp (loss of HLA-E mediated protection from killing) [4]: could interfere with HLA-E mediated protection by competing with MHC class I signal peptides; also recorded: became more susceptible to killing with increasing concentrations of hsp60sp | dissociation of HLA-E/peptide complexes [7]: dissociated faster than the HLA-E/B7sp

RGPGRAFVTI [P18I10, reference compound]
competition with B7sp (loss of HLA-E mediated protection from killing) [4]: remained protected from killing at all concentrations tested

VMAPVTVLL [B7 R5V, B7sp with arginine to valine at position 5]
HLA-E cell surface expression (stabilization) [3, 14]: expressed high levels of HLA-E | protection of K562-E*01033 cells from killing by NK cells [6]: efficiently killed by CD94/NKG2A^+ NK cells | competition with B7sp (loss of HLA-E mediated protection from killing) [4]: even stronger competitor than hsp60sp

VMLAVDAVI [hsp60.3, human hsp60 residues 144-152]
HLA-E cell surface expression (stabilization) [3, 14]: HLA-E stabilization was not observed

VMAPRTVLL (also called B7 signal peptide) [B7sp (VMAPRTVLL), peptide from the leader sequence of HLA-B*0701]
binding result [8]: binds

VMAPVTVLL [B7 R5V (VMAPVTVLL)]
binding result [9]: binds

VMLAVDAVI [hsp60.3 peptide (VMLAVDAVI)]
binding result [10]: no binding

B1: hsp60sp (QMRPVSRVL), nonamer from the signal sequence of human hsp60 (peptide)
peptide: QMRPVSRVL
notes: Synthetic peptide (Research Genetics); also called hsp60 signal peptide; hsp60 leader peptide
binding result [11]: binds | binding result [8]: binds

QMRPRSRVL [hsp60 V5R (QMRPRSRVL)]
binding result [12]: binds

LMLQGVDLL [hsp60.2 peptide (LMLQGVDLL)]
binding result [10]: no binding

GMKFDRGYI [hsp60.4 peptide (GMKFDRGYI)]
binding result [13]: binds
